Test results reported in the DeepSol protein solubility set.

Test: soluble on expression in E. coli; label from the status in PepcDB or PDB records

Sequence | soluble on expression in E. coli
MGSDKIHHHHHHMFTVMDIVQPDTVEEAYSILNKRKTNQVIGGSAFLRMGKKRIGTGIELSKLNLDYIKEYEDYVEIGSMTTFRTLETSSIIKNNFGRIIEDSVKNIIGVQFRNVVTVGATVFSKYGFSDLIVALLSLDTEVELYNIGRISLEEFLNRDYEKDLLIKIYIKKTNKNASYKSLRNAKSDYPILNVSVSKHMEQFKLCVGARPQKATIAKQASEFLSNNEINEINIDKAVEIASEELTFGSNMRASREYRKAMSKVLLKRAIMEVI | not soluble
MGSDKIHHHHHHMTQRHSRILLFVVNTPEFFLSHRLPIAIAAHKAGYEVHVASAEGDGVQAVLAHGFVHHSIGFARSGQNPWVEFRTLVSLVQVMRRVQPDIVHLITIKPVLYGGIAARLVRVPAVVSAVSGLGTVFLAHTWATRLRRWFIIELYKAAFKQRSLAVIFQNPDDRDTLISSGAIQSGDTRMIRGSGVSLDDYPCVTEPEGKPVAVMAARLLRNKGVVEFVGAARILRDRGVDVDMRLIGSPDLDNPASVTELELERWKSESVVTLMGYRKDIAHQYASSNIVCLPSYYGEGLPKSLVEAAACGRAVVTTDHPGCRDAILPDETGVLIPIKDSVALANAIQRLIENPDLRRKMGKAGRELAEEAFSIDQIVEQHLKIYDEVMATVRNGSLRQ | not soluble
MKKLITALSLVLVSYASMAAQECSLDFVKSAPNSRYLYSDLGVVTDLKTGLTWMRCPVGMTWDMAQKACSGEAQKVTWQNALLTAEQIRNASGNHVLHNFADKKQWRLPNIKELVTLTERACFHPSMNGTAFESAYSLETGDLGSYIWSNTPGTDARQIMTFESVNGDVIGYSPEANQFSVLLVTDEDLEHHHHHH | not soluble
MAHHHHHHMSGRLRLYKEKLEGYNRFYSIVKTIKMVTMAKFRQAQVRIKTRDYTLRYTEKAFSKPGQLVGDSPQAKAIYIPVMTNRGSCGALNSNVVKVIDSVASSRAYLMPLGKRGIESLSKLYPSSFRMGIVNDMHEPMHFAYATYVWENAQQLCPEADRVHVIFHRCVSAGSQKQCYYNIPSYEKWREDLADASSTENQKSRYLFANTLLNEDEQMIRDFYDFHATLAILNAVCENELSEQAARLVAVEGQLSNISTLQQKTSSLYNKTRQSSITSSLIEIISAMTSLEGNAAKGVQRTNFWEGARMK | not soluble
GPGSMTYCPITRKELERYLPNFDPLLDPQIGEWVLVTPERRFAILGPLLQFVQEHAIKPIYPFLDNSEPSSAPVTTFNFCKEDSPKTLGDPSKVFPTLSEVWRRYRRRRFHISGMDEDGIGEEEENDDTILYLNPRALLLTPCAPAVFGGSDFIEGLDREGERVVFVNWKTGETRTDSGVLKPAPIPAWAEDVAEKAAMEWESWKKCVIPPSSTRE | soluble
MKVPHVIAELVSEFSGFQHTPDFKASRSTGNFEEGSEEGTSGSHKPEEHHHKEHHGHSLYFGKHSGKKHLPPVVENDGDTHSNHSDVSGSGSSLKEKKHHGLTAHFKDLFHIGHHHHHHGEHPHSKQNSGASTPARKNSTGSECPCSKQEQCHKHSINITVGADEVPTVLATPPNEQNILHAHFIKNQSPCISRVVSSSSLKEKLHKIKRTTSSDSDTDFPEKKCSVASYRVVTH | not soluble
MAIIASNNSWDLYQLAVVILNYRTPQLVVDCLASLVSQIDPQTQQVIVVDNASGDDSVEEIEKAIANNNWQDWVRLLPSDVNGGFSAGNNLGIQAIRAENYLLLNSDTIVRPGAIQTLLVALEQYPEAGLFSPRLEWPDGTPQISCFRDHSPLSEMIDGARTSVITKLLQPFDVPIPVTEQSFEPQWTSFACVLIRRSVVEQIGLMDDGYFMYYDDIDYCRRARQAAWKIRYIPQASVVHLRGGSGSVKSDVASRKRPRPYLYASRSRYFAKFYGPLGLALANLGWLGGWGIAALREILGQKEPHTCDRQWQDIWFQWRQPLKPYRPELEHHHHHH | soluble
MSDHPGPGAVTPELFGVGGDWLAVTAGESGASVFRAADATRYAKCVPAADAAGLEAERDRIAWLSGQGVPGPRVLDWYAGDAGACLVTRAVPGVPADRVGADDLRTAWGAVADAVRRLHEVPVASCPFRRGLDSVVDAARDVVARGAVHPEFLPVEQRLVPPAELLARLTGELARRRDQEAADTVVCHGDLCLPNIVLHPETLEVSGFIDLGRLGAADRHADLALLLANARETWVDEERARFADAAFAERYGIAPDPERLRFYLHLDPLTWG | not soluble
